The chains are these.
B1: Dipeptidyl peptidase 4 (Homo sapiens), P27487 (parent)
chain: MKTPWKVLLGLLGAAALVTIITVPVVLLNKGTDDATADSRKTYTLTDYLKNTYRLKLYSLRWISDHEYLYKQENNILVFNAEYGNSSVFLENSTFDEFGHSINDYSISPDGQFILLEYNYVKQWRHSYTASYDIYDLNKRQLITEERIPNNTQWVTWSPVGHKLAYVWNNDIYVKIEPNLPSYRITWTGKEDIIYNGITDWVYEEEVFSAYSALWWSPNGTFLAYAQFNDTEVPLIEYSFYSDESLQYPKTVRVPYPKAGAVNPTVKFFVVNTDSLSSVTNATSIQITAPASMLIGDHYLCDVTWATQERISLQWLRRIQNYSVMDICDYDESSGRWNCLVARQHIEMSTTGWVGRFRPSEPHFTLDGNSFYKIISNEEGYRHICYFQIDKKDCTFITKGTWEVIGIEALTSDYLYYISNEYKGMPGGRNLYKIQLSDYTKVTCLSCELNPERCQYYSVSFSKEAKYYQLRCSGPGLPLYTLHSSVNDKGLRVLEDNSALDKMLQNVQMPSKKLDFIILNETKFWYQMILPPHFDKSKKYPLLLDVYAGPCSQKADTVFRLNWATYLASTENIIVASFDGRGSGYQGDKIMHAINRRLGTFEVEDQIEAARQFSKMGFVDNKRIAIWGWSYGGYVTSMVLGSGSGVFKCGIAVAPVSRWEYYDSVYTERYMGLPTPEDNLDHYRNSTVMSRAENFKQVEYLLIHGTADDNVHFQQSAQISKALVDVGVDFQAMWYTDEDHGIASSTAHQHIYTHMSHFIKQCFSLP

The assay covers variants of B1. The settings on record: with spike_mers1 S.
With L294A;I295A, the “effect of a mutation on the interaction” value is “disrupting interaction strength”. To Q344A belongs “with no effect”. To R336A belongs “decreasing interaction strength”; to K267A, “disrupting interaction strength”; to K267E, “disrupting interaction strength”. The same measure for L294D;I295D: “disrupting interaction strength”; for R317A: “decreasing interaction strength”.

The record behind these values is IntAct's records for PubMed 25461530.
